Measured values from paper PMC10286459, “The development of an anti-cancer peptide M1-21 targeting transcription factor FOXM1” (Cell & Bioscience, 2023).
Non-standard residues stand in square brackets, D forms with d. No end group written: not given here.

Legend:
GFP-FOXM1(688-748) = biological target: T1, GFP-FOXM1(688-748) (human); assay: MST
T1 construct: also called GFP-M1(688–748); FOXM1 C-terminus
T1 sequence (Q08050 688-748, looked up): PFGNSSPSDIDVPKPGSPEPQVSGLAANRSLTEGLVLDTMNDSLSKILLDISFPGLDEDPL

GFP-FOXM1(1-138) = biological target: T2, GFP-FOXM1(1-138) (human, UniProt Q08050 1-138); assay: MST
T2 construct: also called GFP-M1(1-138); FOXM1 N-terminal domain
T2 sequence (looked up): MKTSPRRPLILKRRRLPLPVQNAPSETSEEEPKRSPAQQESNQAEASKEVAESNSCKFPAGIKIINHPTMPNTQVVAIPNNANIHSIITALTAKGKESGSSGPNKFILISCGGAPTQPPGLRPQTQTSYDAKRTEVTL

GFP-FOXM1(232-332) = biological target: T3, GFP-FOXM1(232-332) (human, UniProt Q08050-3 232-332); assay: MST
T3 construct: also called GFP-M1(232–332); FOXM1 DBD
T3 sequence (looked up): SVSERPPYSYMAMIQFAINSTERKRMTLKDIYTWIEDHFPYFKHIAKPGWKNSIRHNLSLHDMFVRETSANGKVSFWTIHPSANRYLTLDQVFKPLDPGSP

GFP-FOXM1 = biological target: T4, GFP-FOXM1 (human, UniProt Q08050-3 1-801); assay: MST
T4 sequence (looked up): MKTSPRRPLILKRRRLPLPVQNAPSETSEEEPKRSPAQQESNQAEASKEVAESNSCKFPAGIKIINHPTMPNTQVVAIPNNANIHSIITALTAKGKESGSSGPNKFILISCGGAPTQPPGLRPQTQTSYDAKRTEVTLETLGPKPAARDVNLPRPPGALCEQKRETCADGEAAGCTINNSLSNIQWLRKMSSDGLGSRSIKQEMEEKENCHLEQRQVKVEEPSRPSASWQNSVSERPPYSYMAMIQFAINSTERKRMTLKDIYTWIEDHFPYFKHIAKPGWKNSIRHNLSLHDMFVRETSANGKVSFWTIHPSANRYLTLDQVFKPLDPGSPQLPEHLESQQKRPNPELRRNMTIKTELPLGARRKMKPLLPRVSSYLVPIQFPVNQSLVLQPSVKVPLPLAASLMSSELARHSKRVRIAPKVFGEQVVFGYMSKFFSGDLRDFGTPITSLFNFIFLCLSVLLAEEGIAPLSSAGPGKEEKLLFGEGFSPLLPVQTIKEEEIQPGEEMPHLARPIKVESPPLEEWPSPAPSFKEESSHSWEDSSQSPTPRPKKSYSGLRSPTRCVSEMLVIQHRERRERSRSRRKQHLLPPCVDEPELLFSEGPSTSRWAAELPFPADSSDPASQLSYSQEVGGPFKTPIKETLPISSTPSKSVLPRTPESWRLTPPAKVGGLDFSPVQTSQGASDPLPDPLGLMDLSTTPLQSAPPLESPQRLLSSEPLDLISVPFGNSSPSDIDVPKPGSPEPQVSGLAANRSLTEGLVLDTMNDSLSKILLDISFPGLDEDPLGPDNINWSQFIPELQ

endogenous FOXM1 protein = biological target: T5, endogenous FOXM1 protein (human (endogenous in 293T and …, UniProt Q08050 1-763)); assay: cell-based or functional assay
T5 sequence (looked up): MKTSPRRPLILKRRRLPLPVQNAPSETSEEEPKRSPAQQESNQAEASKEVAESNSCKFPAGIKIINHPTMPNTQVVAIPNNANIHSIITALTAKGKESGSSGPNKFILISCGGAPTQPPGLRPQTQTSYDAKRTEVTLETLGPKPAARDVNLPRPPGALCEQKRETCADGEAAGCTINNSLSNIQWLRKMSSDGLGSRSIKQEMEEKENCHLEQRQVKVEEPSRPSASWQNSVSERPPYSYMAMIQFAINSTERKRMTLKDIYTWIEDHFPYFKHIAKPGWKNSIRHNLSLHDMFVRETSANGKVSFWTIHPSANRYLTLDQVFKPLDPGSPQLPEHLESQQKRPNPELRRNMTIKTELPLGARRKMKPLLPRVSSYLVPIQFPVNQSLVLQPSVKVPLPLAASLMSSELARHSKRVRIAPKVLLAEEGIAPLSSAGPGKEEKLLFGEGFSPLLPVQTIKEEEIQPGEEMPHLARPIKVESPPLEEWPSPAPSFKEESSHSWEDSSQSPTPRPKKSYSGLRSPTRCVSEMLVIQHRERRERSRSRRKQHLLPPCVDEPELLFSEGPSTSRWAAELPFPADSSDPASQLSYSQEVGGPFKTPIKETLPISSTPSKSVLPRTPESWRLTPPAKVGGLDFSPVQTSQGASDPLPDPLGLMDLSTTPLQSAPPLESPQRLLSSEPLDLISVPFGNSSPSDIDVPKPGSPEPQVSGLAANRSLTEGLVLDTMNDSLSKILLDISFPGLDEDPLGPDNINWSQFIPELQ

B1: M1-21 (peptide)
chain: [dQ][dT][dQ][dP][dR][dL]G[dP][dP][dQ][dT][dP][dA]GG[dC][dS][dI][dL][dI][dF]
modifications: not fully specified; also: retro-inverso, chain direction relative to parent not given here
GFP-FOXM1(688-748)
  Kd: 1.79 µM
GFP-FOXM1(1-138)
  Kd: 6.27 µM
GFP-FOXM1(232-332)
  Kd: 5.71 µM
GFP-FOXM1
  Kd: 12.5 µM
Endogenous FOXM1 protein
  IC50 of cell viability, MDA-MB-231 cells, 48 h (trypan blue): 33.8 µM
